The supplement of paper PMC10065799, “High-throughput profiling of sequence recognition by tyrosine kinases and SH2 domains using bacterial peptide display” (eLife, 2023)

Assays:
SHP2-C SH2 = assay: SH2 binding enrichment of the phosphorylated peptide, bacterial display (enrichment ratio); higher = better substrate or ligand; peptides without Tyr show the background
c-Src SH2 = assay: as above
Grb2 SH2 = Grb2 SH2 (UniProt P62993); assay: as above
Fyn = Fyn (UniProt P06241); assay: phosphorylation enrichment, bacterial display (enrichment ratio); higher = better substrate or ligand; peptides without Tyr show the background
c-Src = assay: as above
MERTK = MERTK (UniProt Q12866); assay: as above
Hck = Hck (UniProt P08631); assay: as above
EPHB1 = EPHB1 (UniProt P54762); assay: as above
c-Abl (mouse) = assay: as above
EPHB2 = EPHB2 (UniProt P29323); assay: as above
FGFR1 = FGFR1 (UniProt P11362); assay: as above
Fer (mouse) = assay: as above
AncSZ = assay: as above
Jak2 = Jak2 (UniProt O60674); assay: as above
Fes = Fes (UniProt P07332); assay: as above
FGFR3 = FGFR3 (UniProt P22607); assay: as above
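For SH2 binding enrichment of the phosphorylated peptide, bacterial display in this document: peptide library displayed on the E. coli surface as eCPX fusions, selected cells deep-sequenced, score is each peptide's frequency after selection divided by its frequency in the input.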
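For phosphorylation enrichment, bacterial display in this document: 11-residue human phosphosite peptides and single-mutation variants displayed on the E. coli surface, counted by deep sequencing, each peptide's frequency after selection divided by its frequency in the unselected input library; frequency after pTyr selection over input frequency; kinase dosed for 20-30% of maximal phosphorylation in three min.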

Sequence of Jak2 (O60674 whole entry, looked up): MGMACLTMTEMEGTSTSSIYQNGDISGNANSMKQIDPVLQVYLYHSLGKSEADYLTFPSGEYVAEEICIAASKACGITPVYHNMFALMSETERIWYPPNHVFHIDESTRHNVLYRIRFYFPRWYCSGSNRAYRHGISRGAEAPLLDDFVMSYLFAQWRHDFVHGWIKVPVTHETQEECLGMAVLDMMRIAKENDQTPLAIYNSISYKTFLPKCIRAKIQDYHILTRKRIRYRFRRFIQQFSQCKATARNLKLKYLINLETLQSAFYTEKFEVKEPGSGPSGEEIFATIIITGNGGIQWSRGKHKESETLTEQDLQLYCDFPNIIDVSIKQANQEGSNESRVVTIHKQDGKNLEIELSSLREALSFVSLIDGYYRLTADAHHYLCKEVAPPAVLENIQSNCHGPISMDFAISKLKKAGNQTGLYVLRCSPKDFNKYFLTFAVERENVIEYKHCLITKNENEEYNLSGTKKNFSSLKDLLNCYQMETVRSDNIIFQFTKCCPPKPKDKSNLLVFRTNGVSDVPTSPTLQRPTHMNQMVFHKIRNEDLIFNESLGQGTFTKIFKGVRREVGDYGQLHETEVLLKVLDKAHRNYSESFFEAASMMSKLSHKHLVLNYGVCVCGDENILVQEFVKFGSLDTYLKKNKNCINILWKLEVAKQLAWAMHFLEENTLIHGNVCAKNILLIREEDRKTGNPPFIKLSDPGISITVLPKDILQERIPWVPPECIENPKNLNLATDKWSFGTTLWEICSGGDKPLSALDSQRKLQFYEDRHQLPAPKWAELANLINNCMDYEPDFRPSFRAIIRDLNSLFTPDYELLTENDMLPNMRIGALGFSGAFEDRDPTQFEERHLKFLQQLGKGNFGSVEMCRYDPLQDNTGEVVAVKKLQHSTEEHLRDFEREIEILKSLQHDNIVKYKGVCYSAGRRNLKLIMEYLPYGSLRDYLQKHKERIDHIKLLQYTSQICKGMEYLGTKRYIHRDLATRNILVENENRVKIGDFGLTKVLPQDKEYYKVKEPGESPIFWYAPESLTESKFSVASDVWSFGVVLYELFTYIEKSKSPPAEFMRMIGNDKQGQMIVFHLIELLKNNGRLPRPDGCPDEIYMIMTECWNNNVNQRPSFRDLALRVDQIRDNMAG
Sequence of EPHB2 (P29323 whole entry, looked up): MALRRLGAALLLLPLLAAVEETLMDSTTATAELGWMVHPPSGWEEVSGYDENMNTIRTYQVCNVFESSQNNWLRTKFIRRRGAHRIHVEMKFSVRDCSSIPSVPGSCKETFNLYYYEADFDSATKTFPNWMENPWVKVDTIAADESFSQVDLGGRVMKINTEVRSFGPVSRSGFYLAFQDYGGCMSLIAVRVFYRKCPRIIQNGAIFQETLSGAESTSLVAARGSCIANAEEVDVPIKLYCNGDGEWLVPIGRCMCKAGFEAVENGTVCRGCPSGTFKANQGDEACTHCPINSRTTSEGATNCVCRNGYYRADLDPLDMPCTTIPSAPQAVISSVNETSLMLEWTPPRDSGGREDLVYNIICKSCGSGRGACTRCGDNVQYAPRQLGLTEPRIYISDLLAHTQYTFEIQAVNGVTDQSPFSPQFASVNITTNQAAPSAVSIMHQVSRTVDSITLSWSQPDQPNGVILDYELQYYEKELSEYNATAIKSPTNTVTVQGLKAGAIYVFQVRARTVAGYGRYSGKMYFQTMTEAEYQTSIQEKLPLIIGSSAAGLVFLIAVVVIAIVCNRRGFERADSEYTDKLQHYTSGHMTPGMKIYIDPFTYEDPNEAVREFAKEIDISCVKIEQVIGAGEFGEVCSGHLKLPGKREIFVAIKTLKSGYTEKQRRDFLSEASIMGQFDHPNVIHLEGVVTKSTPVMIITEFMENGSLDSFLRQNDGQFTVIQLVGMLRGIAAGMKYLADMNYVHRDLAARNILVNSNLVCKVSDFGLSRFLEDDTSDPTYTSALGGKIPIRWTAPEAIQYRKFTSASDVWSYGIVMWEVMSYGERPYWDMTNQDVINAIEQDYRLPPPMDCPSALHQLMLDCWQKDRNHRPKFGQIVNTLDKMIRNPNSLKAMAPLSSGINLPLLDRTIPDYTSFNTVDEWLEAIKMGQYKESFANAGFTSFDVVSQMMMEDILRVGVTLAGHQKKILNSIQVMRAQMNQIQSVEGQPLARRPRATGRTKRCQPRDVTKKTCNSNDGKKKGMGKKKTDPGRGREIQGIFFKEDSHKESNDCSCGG
Sequence of Fyn (P06241 whole entry, looked up): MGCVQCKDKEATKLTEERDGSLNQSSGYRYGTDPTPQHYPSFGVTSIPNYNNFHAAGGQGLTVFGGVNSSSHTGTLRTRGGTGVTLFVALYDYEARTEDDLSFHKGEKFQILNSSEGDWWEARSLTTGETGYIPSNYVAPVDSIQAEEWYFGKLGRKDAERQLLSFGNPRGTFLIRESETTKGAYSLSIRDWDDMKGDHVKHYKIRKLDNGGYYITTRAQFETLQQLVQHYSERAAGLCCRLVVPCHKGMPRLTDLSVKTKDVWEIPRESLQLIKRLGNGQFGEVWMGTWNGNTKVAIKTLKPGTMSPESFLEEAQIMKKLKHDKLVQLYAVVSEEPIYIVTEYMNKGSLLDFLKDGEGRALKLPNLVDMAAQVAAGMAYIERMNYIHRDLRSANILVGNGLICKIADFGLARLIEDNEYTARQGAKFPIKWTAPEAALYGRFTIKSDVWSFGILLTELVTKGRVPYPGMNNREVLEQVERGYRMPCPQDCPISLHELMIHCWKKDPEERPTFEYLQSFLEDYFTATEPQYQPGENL
Sequence of FGFR3 (P22607 whole entry, looked up, the tested form may be a part): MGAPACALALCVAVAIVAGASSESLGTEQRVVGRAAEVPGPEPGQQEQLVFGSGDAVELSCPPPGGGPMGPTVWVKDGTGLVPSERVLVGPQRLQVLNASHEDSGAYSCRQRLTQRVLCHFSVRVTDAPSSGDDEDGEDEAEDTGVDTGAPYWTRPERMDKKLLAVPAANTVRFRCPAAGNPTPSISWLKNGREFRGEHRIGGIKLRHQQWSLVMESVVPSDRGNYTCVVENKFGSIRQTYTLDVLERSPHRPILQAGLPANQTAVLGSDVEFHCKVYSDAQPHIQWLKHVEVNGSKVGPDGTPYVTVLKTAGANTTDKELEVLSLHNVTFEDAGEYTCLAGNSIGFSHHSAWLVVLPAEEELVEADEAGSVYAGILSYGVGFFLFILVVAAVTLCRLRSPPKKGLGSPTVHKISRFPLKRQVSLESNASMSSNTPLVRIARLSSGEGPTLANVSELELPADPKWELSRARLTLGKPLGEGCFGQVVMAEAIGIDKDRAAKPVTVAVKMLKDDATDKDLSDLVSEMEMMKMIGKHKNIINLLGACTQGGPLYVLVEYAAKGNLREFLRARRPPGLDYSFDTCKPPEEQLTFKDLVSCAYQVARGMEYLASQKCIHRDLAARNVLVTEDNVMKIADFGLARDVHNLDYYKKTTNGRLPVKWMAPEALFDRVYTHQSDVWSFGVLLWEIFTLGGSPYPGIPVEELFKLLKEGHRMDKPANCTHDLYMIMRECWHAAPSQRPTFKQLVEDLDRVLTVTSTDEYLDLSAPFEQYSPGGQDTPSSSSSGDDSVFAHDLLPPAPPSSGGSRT
Sequence of MERTK (Q12866 whole entry, looked up): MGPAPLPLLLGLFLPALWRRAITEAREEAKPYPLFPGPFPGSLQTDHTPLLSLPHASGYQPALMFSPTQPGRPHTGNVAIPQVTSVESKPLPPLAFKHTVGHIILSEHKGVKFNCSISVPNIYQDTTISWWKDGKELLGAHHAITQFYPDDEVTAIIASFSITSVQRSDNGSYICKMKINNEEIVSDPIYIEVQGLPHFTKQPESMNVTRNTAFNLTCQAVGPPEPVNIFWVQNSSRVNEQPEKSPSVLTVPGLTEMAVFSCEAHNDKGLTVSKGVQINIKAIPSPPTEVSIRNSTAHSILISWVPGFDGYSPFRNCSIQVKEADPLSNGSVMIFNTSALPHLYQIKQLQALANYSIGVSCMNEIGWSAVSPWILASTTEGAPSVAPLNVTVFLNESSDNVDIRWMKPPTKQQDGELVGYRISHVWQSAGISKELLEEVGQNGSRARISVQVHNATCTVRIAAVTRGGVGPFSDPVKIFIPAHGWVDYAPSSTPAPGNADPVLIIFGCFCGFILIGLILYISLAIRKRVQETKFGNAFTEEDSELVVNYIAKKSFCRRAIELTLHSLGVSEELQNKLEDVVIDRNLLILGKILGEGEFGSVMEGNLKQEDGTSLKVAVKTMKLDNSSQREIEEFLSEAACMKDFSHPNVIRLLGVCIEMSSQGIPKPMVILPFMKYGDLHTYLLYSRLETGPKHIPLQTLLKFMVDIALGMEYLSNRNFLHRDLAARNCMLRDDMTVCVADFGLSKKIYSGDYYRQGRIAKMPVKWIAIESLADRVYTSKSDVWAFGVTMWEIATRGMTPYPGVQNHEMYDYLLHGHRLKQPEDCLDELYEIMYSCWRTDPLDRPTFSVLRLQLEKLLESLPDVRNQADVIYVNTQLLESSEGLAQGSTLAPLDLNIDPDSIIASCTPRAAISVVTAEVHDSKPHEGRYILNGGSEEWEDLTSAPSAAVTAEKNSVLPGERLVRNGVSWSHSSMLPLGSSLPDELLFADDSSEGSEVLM
Sequence of Hck (P08631 whole entry, looked up): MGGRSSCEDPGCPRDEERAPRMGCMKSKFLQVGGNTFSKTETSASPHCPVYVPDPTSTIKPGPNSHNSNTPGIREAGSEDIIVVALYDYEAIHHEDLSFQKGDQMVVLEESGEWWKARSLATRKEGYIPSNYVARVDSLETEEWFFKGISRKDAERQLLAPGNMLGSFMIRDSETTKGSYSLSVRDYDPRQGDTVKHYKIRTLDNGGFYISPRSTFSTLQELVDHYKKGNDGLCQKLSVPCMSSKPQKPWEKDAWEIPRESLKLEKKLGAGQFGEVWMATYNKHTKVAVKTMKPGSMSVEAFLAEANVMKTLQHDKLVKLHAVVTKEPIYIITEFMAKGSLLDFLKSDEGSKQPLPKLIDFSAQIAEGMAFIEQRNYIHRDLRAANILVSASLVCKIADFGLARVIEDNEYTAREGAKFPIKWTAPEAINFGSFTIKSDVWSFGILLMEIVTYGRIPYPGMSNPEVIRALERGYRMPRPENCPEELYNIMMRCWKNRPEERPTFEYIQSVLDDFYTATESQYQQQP

SH2 binding enrichment (SHP2-C SH2) | SH2 binding enrichment (c-Src SH2) | SH2 binding enrichment (Grb2 SH2) | Sequence | phosphorylation enrichment (Fyn) | phosphorylation enrichment (c-Src) | phosphorylation enrichment (MERTK) | phosphorylation enrichment (Hck) | phosphorylation enrichment (EPHB1) | phosphorylation enrichment (c-Abl (mouse)) | phosphorylation enrichment (EPHB2) | phosphorylation enrichment (FGFR1) | phosphorylation enrichment (Fer (mouse)) | phosphorylation enrichment (AncSZ) | phosphorylation enrichment (Jak2) | phosphorylation enrichment (Fes) | phosphorylation enrichment (FGFR3)
0.51 | 0.442 | 0.677 | RAYRHYLLKQK [SCN2A_Y1919_R1918H] | 0.632 | 0.583 | 0.571 | 0.414 | 0.334 | 0.376 | 0.602 | 0.31 | 0.332 | 0.52 | 0.47 | 0.597 | 0.607
0.806 | 0.688 | 0.88 | RDSQIYAVDFE [MRPS34_Y34_L33I_YF] | 6.32 | 7.72 | 5.64 | 2.83 | 1.08 | 0.959 | 1.17 | 0.664 | 0.717 | 1.66 | 1.15 | 1.22 | 0.656
1.07 | 0.701 | 1.37 | RDSQLYAVDFE [MRPS34_Y34_YF] | 0.993 | 1.35 | 1.9 | 0.908 | 1.04 | 0.876 | 0.869 | 0.53 | 0.728 | 1.49 | 1.09 | 1.58 | 0.788
0.631 | 0.545 | 0.69 | RDSQLYAVDYE [MRPS34_Y34] | 1.33 | 1.63 | 2.12 | 1.41 | 0.904 | 0.966 | 1.05 | 1.08 | 0.871 | 2.1 | 2.07 | 2.77 | 1.38
0.739 | 0.55 | 0.989 | REAAAYPHGRL [AGXT_Y297_L298P] | 0.274 | 0.329 | 0.32 | 0.404 | 0.254 | 0.415 | 0.442 | 0.25 | 0.192 | 0.516 | 0.704 | 0.46 | 0.41
0.775 | 0.502 | 0.642 | REEIKYMLWLS [OTC_Y55_G50R] | 0.661 | 0.474 | 0.734 | 0.786 | 0.697 | 0.944 | 0.992 | 0.961 | 0.955 | 1.23 | 1.15 | 1.58 | 1.4
0.811 | 0.787 | 0.961 | REESTYLPLTS [ICAM3_Y527] | 1.35 | 2.39 | 0.803 | 3.17 | 0.88 | 0.674 | 0.894 | 1.19 | 1 | 1.62 | 1.41 | 1.75 | 1.51
5.52 | 0.991 | 1.18 | RESSGYLRLAF [MEP1A_Y481] | 0.732 | 1.11 | 1.07 | 0.872 | 1.08 | 1.23 | 1.21 | 0.593 | 0.93 | 1.46 | 2.85 | 1.8 | 1.25
